Results: patent US20230192878A1 (published 2023)

Biological target: T1, B-cell maturation antigen (BCMA) (human, UniProt Q02223 1-184)
T1 sequence (looked up): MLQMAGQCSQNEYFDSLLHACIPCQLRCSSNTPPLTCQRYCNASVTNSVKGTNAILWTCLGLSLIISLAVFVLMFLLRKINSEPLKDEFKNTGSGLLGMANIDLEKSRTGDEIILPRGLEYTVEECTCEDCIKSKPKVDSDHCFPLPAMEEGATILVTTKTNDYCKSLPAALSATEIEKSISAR
Assay: cell-based or functional assay

B1: PF-06863135 (bispecific antibody, human IgG2)
heavy 1: EVQLVESGGGLVQPGGSLRLSCAASGFTFSDYYMTWVRQAPGKGLEWVAFIRNRARGYTSDHNPSVKGRFTISRDNAKNSLYLQMNSLRAEDTAVYYCARDRPSYYVLDYWGQGTTVTVSSASTKGPSVFPLAPCSRSTSESTAALGCLVKDYFPEPVTVSWNSGALTSGVHTFPAVLQSSGLYSLSSVVTVPSSNFGTQTYTCNVDHKPSNTKVDKTVERKCRVRCPRCPAPPVAGPSVFLFPPKPKDTLMISRTPEVTCVVVAVSHEDPEVQFNWYVDGVEVHNAKTKPREEQFNSTFRVVSVLTVVHQDWLNGKEYKCKVSNKGLPSSIEKTISKTKGQPREPQVYTLPPSREEMTKNQVSLTCLVKGFYPSDIAVEWESNGQPENNYKTTPPMLDSDGSFFLYSRLTVDKSRWQQGNVFSCSVMHEALHNHYTQKSLSLSPGK
light 1: not shown
heavy 2: EVQLLESGGGLVQPGGSLRLSCAASGFTFSSYPMSWVRQAPGKGLEWVSAIGGSGGSLPYADIVKGRFTISRDNSKNTLYLQMNSLRAEDTAVYYCARYWPMDIWGQGTLVTVSSASTKGPSVFPLAPCSRSTSESTAALGCLVKDYFPEPVTVSWNSGALTSGVHTFPAVLQSSGLYSLSSVVTVPSSNFGTQTYTCNVDHKPSNTKVDKTVERKCEVECPECPAPPVAGPSVFLFPPKPKDTLMISRTPEVTCVVVAVSHEDPEVQFNWYVDGVEVHNAKTKPREEQFNSTFRVVSVLTVVHQDWLNGKEYKCKVSNKGLPSSIEKTISKTKGQPREPQVYTLPPSREEMTKNQVSLTCEVKGFYPSDIAVEWESNGQPENNYKTTPPMLDSDGSFFLYSKLTVDKSRWQQGNVFSCSVMHEALHNHYTQKSLSLSPGK
light 2: EIVLTQSPGTLSLSPGERATLSCRASQSVSSSYLAWYQQKPGQAPRLLMYDASIRATGIPDRFSGSGSGTDFTLTISRLEPEDFAVYYCQQYQSWPLTFGQGTKVEIKRTVAAPSVFIFPPSDEQLKSGTASVVCLLNNFYPREAKVQWKVDNALQSGNSQESVTEQDSKDSTYSLSSTLTLSKADYEKHKVYACEVTHQGLSSPVTKSFNRGEC
  EC50 (nM) of cell viability, H929-Luc co-cultured with human CD3+ T cells, 72 hr, with GSI (nirogacestat): 0.0055 nM
  EC50 (nM) of cell viability, H929-Luc co-cultured with human CD3+ T cells, 72 hr, without GSI: 0.167 nM
  EC50 (nM) of cell viability, Molp8-Luc co-cultured with human CD3+ T cells, 72 hr, with GSI (nirogacestat): 0.0202 nM
  EC50 (nM) of cell viability, Molp8-Luc co-cultured with human CD3+ T cells, 72 hr, without GSI: 0.108 nM
  EC50 (nM) of cell viability, OPM2-Luc co-cultured with human CD3+ T cells, 72 hr, with GSI (nirogacestat): 0.0033 nM
  EC50 (nM) of cell viability, OPM2-Luc co-cultured with human CD3+ T cells, 72 hr, without GSI: 0.0528 nM
  EC50 (nM) of cell viability, RPMI8226-Luc co-cultured with human CD3+ T cells, 72 hr, with GSI (nirogacestat): 0.0017 nM
  EC50 (nM) of cell viability, RPMI8226-Luc co-cultured with human CD3+ T cells, 72 hr, without GSI: 0.0092 nM
